Test results as given in US20220049236A1.

Key:
HSP70 [1] = target: HSP70 (UniProt P0DMV8); test: ELISA, plate coated with HSP70
HSP70 [2] = target: HSP70 (UniProt P0DMV8); test: ELISA, plate coated with HSP70, bound protein detected with peroxidase-conjugated anti-human antibody

Sequence of HSP70 (P0DMV8 whole entry): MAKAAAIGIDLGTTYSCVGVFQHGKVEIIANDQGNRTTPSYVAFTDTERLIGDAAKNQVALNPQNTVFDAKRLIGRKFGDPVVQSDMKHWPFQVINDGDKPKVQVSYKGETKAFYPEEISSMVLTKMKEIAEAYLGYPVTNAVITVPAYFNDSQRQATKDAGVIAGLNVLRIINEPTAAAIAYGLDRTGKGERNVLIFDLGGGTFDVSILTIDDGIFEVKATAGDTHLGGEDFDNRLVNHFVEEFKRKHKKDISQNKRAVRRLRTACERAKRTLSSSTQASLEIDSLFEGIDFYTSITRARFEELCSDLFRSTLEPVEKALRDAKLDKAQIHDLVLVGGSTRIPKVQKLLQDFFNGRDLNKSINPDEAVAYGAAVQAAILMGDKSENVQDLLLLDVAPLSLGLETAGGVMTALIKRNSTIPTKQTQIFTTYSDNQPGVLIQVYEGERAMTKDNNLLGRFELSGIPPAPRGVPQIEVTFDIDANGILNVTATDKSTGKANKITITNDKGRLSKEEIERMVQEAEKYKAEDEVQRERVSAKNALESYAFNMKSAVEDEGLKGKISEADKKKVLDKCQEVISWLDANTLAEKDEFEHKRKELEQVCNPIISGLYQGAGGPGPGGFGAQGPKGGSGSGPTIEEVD

EC50 (HSP70 [1]): 41 nM | EC50 (HSP70 [2]): 57 nM
B1: Fc-LPD N346, 362, 409Q (Fc fusion)
chain: APPAAGQQQPPREPPAAPGAWRQQIQWENNGQVFSLLSLGSQYQPQRRRDPGAAVPGAAQASAQQPRTPILLIRDQRTAAARTRTAGSSGVTAGRPRPTARHWFQAGYSTSRAREAGASRAEQQTAPGEVPALSNLRPPSRVDGMVGD
